Here are results for 22 molecules from patent US20240218057A1 (ROCKEFELLER UNIVERSITY, published 2024).

B1: C1034 (antibody, V domains shown)
VH: QLQLQESGPGLVKPSETLSLTCTVSGGSVSSNNHYWGWIRQPPGKGLEWIGSISSSGSTHHNPSLRSRVTISVDTSKNHFSLKLNSVTATDTAVYYCARVDSSGWYTGDVFDVWGQGTMVTVSS
VL: DIQMTQSPSSLSASVGDRVTITCRASQTINNYLNWYQQKPGKPPKLLIYAAFSLHSGVPSRFSGSRSGTDFTLTISSLQPEDFATYYCQHSYSTMCSFGQGTKLEIK
B2: C948 (antibody, V domains shown)
VH: EVQLVESGGGLVQPGGSLRLSCAASGFTFSRYDMHWVRQATGKGLEWVSIIGTAGDTYYPGSVKGRFTISRDNAKNSLFLQMNSLRAGDTAVYYCARANYDSSGYHNWFDPWGQGTLVTVSS
VL: DIQMTQSPSSLSASIGDRVTITCRASQNINSYLNWYQQKPGKAPKLLIYAASSLQSGVPSRFSGSGSGTDFTLTINSLQPEDFATYYCQQSYSMPSWTFGQGTKVEI
B3: C951 (antibody, V domains shown)
VH: QVQLQESGPRLVKPSGTLSLTCAVSGGSISTTNWWSWVRQPPGKGLEWIGEIHHSGNTNYNPSLKSRVTISVDRSKNQFSLKLSSVTAADTAVYFCARDGGRPGDPFDIWGQGTMVTVSS
VL: QSALTQPASVSGSPGQSITISCTGTSSDVGGYNYVSWYQQHPGKAPNLMIYDVSDRPSGVSNRFSGSKSGNTASLTISGLQAEDEADYYCNSFTSNSTRVFGTGTKVTV
B4: C1030 (antibody, V domains shown)
VH: EVQLVESGGGLVQPGGSLRLSCEASGVIVSSNYMNWVRQAPGKGPEWVSVLYAGGSTFYADSVKGRFTISRDDSKNTLFLQMNNLRAEDTAVYFCARDLIAFGMDVWGQGTTVTVSS
VL: DIQLTQSPSFLSASVGDRVTITCRASQGINSDLAWYQQKPGKAPKLLIYGASTLQSGVPSRFSGSGSGTEFSLTVSSLQPEDFATYYCQQLNSYRRFGGGTKVEIK
B5: C1031 (antibody, V domains shown)
VH: QLQLQESGPGLVKPSETLSLTCTVSGGSINTSTYYWGWIRQPPGKGLEWIGNIYYSGITYYNPSLKSRVTISVDTSKNQFSLKLRSVTAADTAVYYCARQHRFGSGSSELLWGQGTLVTVSS
VL: QSALTQPPSASGSPGQSVTISCTGTSSDVGSYNYVSWYQQHPGKAPKLMIYEVTKRPSGVPDRFSGSKSGNTASLTVSGLQADDEADYYCSSYAGSSNLVFGGGTKLTV
B6: C1027 (antibody, V domains shown)
VH: EVQLVESGGGLVQPGGSLRLSCAASGFIVTTNYMSWVRQAPGKGLEWVSLIYPGGSTFYADSVEGRFTISRDNSKNTLYLQVNSLRVEDTAVYYCARDTFGRGDDHWGQGTLVTVSS
VL: DIQMTQSPSSLSASVGDRVTITCQASQDINIYLNWYQQRPGKAPKLLIYDASNLQTGVPSRFSGSGSGTDFTITISSLQPEDIATYYCQQYDNLPRSFGQGTKLEI
B7: C949 (antibody, V domains shown)
VH: QVQLQESGPGLVKPLQTLSLTCTVSGGSISNGDYYWSWIRQSPGKGLEWIGNIFYSGATYFNPSLKSRVTLSVDTSKNQFSLKLSSVTAADTAVYYCARVVRVLPAASVDCWGQGTLVTVSS
VL: QSALTQPRSVSGSPGQSVPISCTGTSSDVGGYDYVSWYQQHPGKAPKLIIYDVSERPSGVPDRFSGSKSGNTASLTISGLQAEDEATYYCCSYAGTSVMFGGGTKLTVL
B8: C943 (antibody, V domains shown)
VH: QVQLVESGGGVVQPGRSLRLSCAASGFPFSSFGMHWVRQAPGRGLEWVALILYDGDNKYYADSVKGRFTISRDNSKNTLYLQMNSLRAEDTAVYYCAKDIGGGSSPPFFDYWGQGTLVTVSS
VL: SYELTQAPSVSLAPGKTARITCGENNIGSKSVHWYQQKPGQAPVLVIYYDSDRPSGIPERFSGSNSGNTATLTISRVEAGDEADYYCQVWDSSSDHVMFGGGTKLTVL
B9: C947 (antibody, V domains shown)
VH: QVQLQESGPGLVRPSGTLSLTCAVTGGSISSSDCWSWVRQPPGKGLEWIGEICHGRTSNYNPSLKSPVSISVDKSKNQFSLILSSVTAADKAVYYCARSSRFLPPLPDAFDLWGQGTMVTVSS
VL: QSVLTQPPSVSGAPGQRVTISCTGSSSNIGAGYDVHWYKQLPGTAPKLLIYGNTNRPSGVPGRFSGSKSGTSASLAITGLQAEDEADYFCQSYDTRLSVVFGGGTKLT
B10: C1025 (antibody, V domains shown)
VH: EVQLVESGGGLVQPGRSLRLSCAASGFTFDDYAMHWVRQVPGKGLEWVSGVSWNGDSVGYADSMEGRFTISRDNAKNSLYLQMNSLRTEDTALYYCAKGVDYSSSSNFDFWGQGTLVTVSS
VL: DIQMTQSPSSVSASVGDRVTITCRASQGISSWLAWYQQKPGKAPKLLISLASSLQSGVPSRFSGSGSETDFTLIISSLQPEDFATYYCQQSSSFPLTFGGGTKVEIK
B11: C944 (antibody, V domains shown)
VH: QVQLVESGGGVVQPGRSLRLSCAASGFTFSSYGMHWVRQAPGKGLEWVAVISYDGSYKYYADSVKGRFTISRDNSKNTLYLQMNSLRAEDTAVYYCAKGSGSQLYYYYGMDVWGQGTTVTVSS
VL: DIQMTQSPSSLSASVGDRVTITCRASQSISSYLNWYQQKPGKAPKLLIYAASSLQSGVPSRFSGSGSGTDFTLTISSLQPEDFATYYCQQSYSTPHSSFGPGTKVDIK
B12: C1032 (antibody, V domains shown)
VH: EVQLVESGGSLVKPGGSLRLSCVASGLTFNHAWMSWVRQAPGKGLEWVGRIKSKIDGGTTDYAAPVKGRFTISRDDSKSTQYLQMNSLKTEDTAVYYCTTDCFWRLGGTTCYEHDAFDVWGQGTMVTVS
VL: DIQMTQSPSSLSASVGDRVTITCRASQAIATFLNWYQQKPGKAPKLLIYAASSLQSGVPSRFSGSGSGTDFTLTISSLQPEDFATYYCQQSYNSLHFGGGTKVEIK
B13: C941 (antibody, V domains shown)
VH: QVQLVQSGAEVKKPGSSVKVSCKASGGTSRSYPISWVRQAPGQGLEWMGRIIPIVGTANYAQRFQGRVTITADESTGTAYMELSSLRSEDTAVYYCARNRGYSDYGSVYYFDYWGQGTLVTVSS
VL: QSVLTQPPSVSGAPGQRVTISCTGSSSNIGAGYDVHWYQQLPGAAPKLLIYRNINRPSGVPDRFSGSKSGTSASLAITGLQADDEADYYCQSYDSSLSGSVFGGGTKLTV
B14: C1033 (antibody, V domains shown)
VH: QVQLVQSGAEVKKPGSSVKVSCKASGGTFSRNVISWVRQAPGQGLEWMGGIIPMFGTANYAQKFQGRVTISADESTSTAYMELSSLRSEDTAVYYCAREDFILESAPIRENSYYYYGMDVWGQGTTVTVSS
VL: EIVLTQSPGTLSLSPGERATLSCRASQSVSSNYLAWYQQKPGQAPRLLIYDASSRATGIPDRFSGSGSGTDFTLTIRRLEPEDFAVYYCQQYGGSPRTFGQGTKVEIK
B15: C942 (antibody, V domains shown)
VH: QVQLVESGGGVVQPGRSLRLSCAASGFTFSSYVMHWVRQAPGKGLEWVAIISSDGNTKYYADSVKGRFTISRDNSKNTLYLQMNSVRTDDTAVYYCARDGTTMTPTDLLTDWGQGTLVTVSS
VL: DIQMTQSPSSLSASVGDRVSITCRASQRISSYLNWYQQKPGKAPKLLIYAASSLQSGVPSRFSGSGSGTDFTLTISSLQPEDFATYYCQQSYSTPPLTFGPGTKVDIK
B16: C945 (antibody, V domains shown)
VH: QVQLVQSGAEVKKPGASVRISCKASGYTFTNYYMHWVRQAPGQGLEWMGIINPSGGSTTYAPKFQARVTMTRDTSTSTVYMELSSLRSDDTAVYYCARDYVLVPARSGMDVWGQGTTVTVS
VL: EIVLTQSPATLSLSPGERATLSCRASQSVSSYLAWYQQKPGQAPRLLIYDASNRATGIPARFSGSGSGTDFTLTISSLEPEDFAIYYCQQRSNWPYTFGQGTKLEIK
B17: C1041 (antibody, V domains shown)
VH: QVQLVQSGAEVKKPGASVKVSCKASGYTFSDHYIYWVRQAPGQGLEWMGIINPSAGSTSYAQKFQGRVTMTRDTSTSTVYMELSSLRSEDTAVYYCARDIVFVPATMAMDVWGLGTTVTVSS
VL: EIVLTQSPATLSLSPGERATLSCRASQSVSRYLAWYQQKPGQAPRLLIYDASNRATGIPARFSGSGSGTDFTLTISSLEPEDFAVYYCQQRSNWLFTFGPGTKVDIK
B18: C1042 (antibody, V domains shown)
VH: QVQLVQSGAEVKKPGASVKVSCKASGYTFSDHYIYWVRQAPGQGLEWMGIINPSGGSTSYAQKFQGRVTMTRDTSTSTVYMELSSLKSEDTAVYYCSRDIVFVPATMAMDVWGQGTTVTVSS
VL: EIVLTQSPATLSLSPGERATLSCRASQSVSRYLAWYQQKPGQAPRLLIYDASNRATGIPARFSGSGSGTDFTLTISSLEPEDFAVYYCQQRSNWLFTFGPGTKVDIK
B19: C946 (antibody, V domains shown)
VH: QVQLVQSGAEVKKPGASVKVSCKASGYTFTNYYIHWVRQAPGQGLEWMGIINPDGDSTSYVQKFQGRVTMTRDTSTSTVYMELSSLRSEDTAVYYCARDLVFVPATSAMDVWGKGTTVTVSS
VL: EIVLTQSPATLSLSPGERATLSCRASQSVSSYLAWYQQKPGQAPRLLIYDASNRATGIPARFSGSGSGTDFTLTISSLEPEDFAVYYCQQRSNWLFTFGPGTKVDIK
B20: C1029 (antibody, V domains shown)
VH: QVQLVESGGGVVQPGRSLRLSCAASGFTFSSFGMHWVRQAPGKGLEWVAVISYDGSYKDYGDSVKGRFTISRDNSKNTLYLQMNSLRAEDTAVYYCARDSNVDTVMVTWFDYWGRGTLVTVSS
VL: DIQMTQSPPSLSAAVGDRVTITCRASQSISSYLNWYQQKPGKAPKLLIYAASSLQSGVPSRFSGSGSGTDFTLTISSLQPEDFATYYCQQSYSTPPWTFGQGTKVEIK
B21: C1026 (antibody, V domains shown)
VH: QVQLVESGGGVVQPGKSLRLSCAASGFIFSSYSMHWVRQAPGKGLEWVAVVSNDGSGKFYADSVRGRFTIFRDNSKNTLYLQVSSLRAEDTAVYYCARDALTSISVLFDCWGQGTLVTVSS
VL: DIQMTQSPSSLSASLGDRVTITCRASQSISNYLNWYQQKPGKAPKLLIYGASSLQSGVPSRFSGSGSGTDFTLTISNLQPEDFATYFCQQSYSTPSVTFGGGTKVEIK
B22: C1028 (antibody, V domains shown)
VH: QVQLVESGGGVVQPGRSLRLSCADSGFTFSSSGMHWVRQAPGKGLEWVGVISYDGGNKYYADSVKGRFTISRDNSKNTLYLQMNSLRAEDTAVYYCAKDTPGGDDIMTGWGLYGMDVWGQGTTVTVSS
VL: DIQMTQSPSSLSASVEDRVTITCRASQSISSYLNWYQQKPGKAPKLLIYAAISLQSGVPSRFSGSGSGTEFTLTISSLQPEDFATYYCQQSYTTPWAFGQGTKVEIK

The target of the test is T1, SARS-COV-2 RBD (SARS-COV-2, UniProt P0DTC2 319-539).
T1 construct: also called WT RBD
Description: ELISA, RBD coated on plate. In general terms: In an ELISA, binding on a coated surface is turned into a signal by an enzyme label.
With B1, the EC50 came to 2.77 ng/mL.

With B2, the EC50 turned out to be 3.26 ng/mL.

For the molecule B3, the EC50 was 0.81 ng/mL.

With B4, a half-maximal response (EC50) required 2.78 ng/mL.

B5 yielded a concentration giving a half-maximal response (EC50) of 7.23 ng/mL.

Molecule B6 returned an EC50 of 2.42 ng/mL.

The molecule B7 yielded a concentration for a half-maximal effect (EC50) of 2.33 ng/mL.

B8 registered an EC50 of 2.59 ng/mL.

The molecule B9 showed a 50% effective concentration (EC50) of 2.08 ng/mL.

In the case of B10, the EC50 turned out to be 2.51 ng/mL.

In turn, B11 registered a 50% effective concentration (EC50) of 1.71 ng/mL.

B12 showed a concentration giving a half-maximal response (EC50) of 2.89 ng/mL.

B13: the EC50 stood at 0.88 ng/mL.

In turn, B14 gave a half-maximal effective concentration (EC50) of 3.63 ng/mL.

As for B15, the response was half-maximal at 1.35 ng/mL (EC50).

Take B16: the concentration for a half-maximal effect (EC50) worked out at 3.13 ng/mL.

With B17, it took 3.65 ng/mL to reach a half-maximal effect (EC50).

B18 registered an EC50 of 4.55 ng/mL.

As for B19, the EC50 came out at 3.82 ng/mL.

Molecule B20 registered an EC50 of 2.86 ng/mL.

The molecule B21 yielded a half-maximal effective concentration (EC50) of 2.5 ng/mL.

Regarding B22, a half-maximal effect (EC50) was put at 3.58 ng/mL.

Broadly, the EC50 is the concentration at which the effect is half-maximal. A high value points to lower potency in that assay.
